{"source": "patent US20240228986A1", "about": "“ENGINEERED CELLS, ENZYMES, AND METHODS FOR PRODUCING CANNABINOIDS” (priority 2021, published 2024)", "molecules": {"B1": {"name": "GPS1.1-F11-PKC1.1-F11-MPT4: triple fusion of GPS1.1, PKC1.1 and MPT4 via F11 linkers, SEQ ID NO: 92 (protein)", "chain": "MSKAKFESVFPRISEELVQLLRDEGLPQDAVQWFSDSLQYNCVGGKLNRGLSVVDTYQLLTGKKELDDEEYYRLALLGWLIELLQAFWLVSDDIMDESKTRRGQPCWYLKPKVGMIAIWDAFMLESGIYILLKKHFRQEKYYIDLVELFHDISFKTELGQLVDLLTAPEDEVDLNRFSLDKHSFIVRYKTAYYSFYLPVVLAMYVAGITNPKDLQQAMDVLIPLGEYFQVQDDYLDNFGDPEFIGKIGTDIQDNKCSWLVNKALQKATPEQRQILEDNYGVKDKSKELVIKKLYDDMKIEQDYLDYEEEVVGDIKKKIEQVDESRGFKKEVLNAFLAKIYKRQKGGAEAAAKEAAAKAGGSGGGSGGGGSGGSGGGGSGGGGSMAVKHLIVLKFKDEITEAQKEEFFKTFVNLVNIIPAMKDVYWGKDVTQKNKEEGYTHIVEVTFESVETIQDYIIHPAHVGFGDVYRSFWEKLLIFDYTPRKGGAEAAAKEAAAKAGGSGGGSGGGGSGGSGGGGSGGGGSMSDNSIATKILNFGHTCWKLQRPYVVKGMISIACGLFGRELFNNRHLFSWGLMWKAFFALVPILSFNFFAAIMNQIYDVDIDRINKPDLPLVSGEMSIETAWILSIIVALTGLIVTIKLKSAPLFVFIYIFGIFAGFAYSVPPIRWKQYPFTNFLITISSHVGLAFTSYSATTSALGLPFVWRPAFSFIIAFMTVMGMTIAFAKDISDIEGDAKYGVSTVATKLGARNMTFVVSGVLLLNYLVSISIGIIWPQVFKSNIMILSHAILAFCLIFQTRELALANYASAPSRQFFEFIWLLYYAEYFVYVFI", "modifications": "GPS1.1-F11-PKC1.1-F11-MPT4, geranyl diphosphate synthase, polyketide cyclase, membrane-bound prenyltransferase fusion protein"}, "B2": {"name": "GPS1.1-F11-MPT21: fusion of GPS1.1 and MPT21 via F11 linker, SEQ ID NO: 25 (protein)", "chain": "MSKAKFESVFPRISEELVQLLRDEGLPQDAVQWFSDSLQYNCVGGKLNRGLSVVDTYQLLTGKKELDDEEYYRLALLGWLIELLQAFWLVSDDIMDESKTRRGQPCWYLKPKVGMIAIWDAFMLESGIYILLKKHFRQEKYYIDLVELFHDISFKTELGQLVDLLTAPEDEVDLNRFSLDKHSFIVRYKTAYYSFYLPVVLAMYVAGITNPKDLQQAMDVLIPLGEYFQVQDDYLDNFGDPEFIGKIGTDIQDNKCSWLVNKALQKATPEQRQILEDNYGVKDKSKELVIKKLYDDMKIEQDYLDYEEEVVGDIKKKIEQVDESRGFKKEVLNAFLAKIYKRQKGGAEAAAKEAAAKAGGSGGGSGGGGSGGSGGGGSGGGGSMSDNSIATKILNFGHTCWKLQRPYVVKGMISIACGLFGKELLHNTNLISWGLMWKAFFALVPILSFNFFAAIMNQIYDVDIDRINKPDLPLVSGEMSIETAWILSIIVALTGLIVTIKLKSAPLFVFIYIFGIFAGFAYSVPPIRWKQNPSTNFLITISSHVGLAFTSYYASRAALGLPFELRPSFTFLLAFMTVMGMTIAFAKDISDIEGDAKYGVSTVATKLGARNMTFVVSGVLLLNYVAAILAGIIWPQAFNSNVMLLSHAILAFCLIFQTRELALANYASAPSRQFFEFIWLLYYAEYFVYVFI", "modifications": "GPS1.1-F11-MPT21, geranyl diphosphate synthase, recombinant membrane-bound prenyltransferase fusion protein"}}, "format_in_all_cases": "cell-based, Yarrowia", "key": {"hexanoic acid": {"system": "hexanoic acid", "assay": "GPS-PKC-MPT fusions, hexanoic acid feed in vivo assay (Example 13)", "procedure": "Strain SB-00311 (HCS2, PKS1.1 and PKC1.1) was co-transformed with 1) a construct (pCL-SE-0274) for expression of HMGR and GPS1.1 and 2) a construct (pCL-SE-0406) for expression of a fusion protein that contains, from N- to C-terminus, GPS1.1 and MPT4 linked using the F11 linker sequence or a construct (pCL-SE-0474) for expression of a fusion protein that contains, from N- to C-terminus, GPS1.1, PKC1.1 and MPT4, each linked using the F11 linker sequence.\nTransformants were assessed for CBGA production from hexanoic acid. Assay cultures consisted of YNBD+CAA media with 2.5 mM hexanoic acid. After 24 h, an additional 5 mM hexanoic acid was added to each assay culture. Cultures were quenched after 48 h total growth.\nOvernight YPD (10 g/L yeast extract, 20 g/L peptone, 2% dextrose) cultures were inoculated from glycerol stocks of the appropriate strain and grown at 30° C. with 250 rpm shaking. Once cultures had reached an OD600 of 4-6, cultures were centrifuged at 500×g for 5 min, supernatants were discarded, and cell pellets were resuspended in equal volume of water. Resuspended cells were centrifuged at 500×g for 5 min, supernatants were discarded, and cells were resuspended in a volume (75 μL×OD×Vculture) of transformation cocktail (45% PEG-400, 0.1 M LiAc, 0.1 M DTT, and 25 ug/100 μL SS Salmon Sperm DNA). For each transformation, >1 μg of plasmid DNA was added to 55 μL cells/transformation cocktail and vortexed for 2 s. Transformations were incubated at 39° C. for 1 h with 250 rpm shaking. Transformations were resuspended in 750 μL YPD with 1 M sorbitol and recovered at 30° C. overnight with 250 rpm shaking. […] Precipitates were pelleted by centrifuging at 4600×g for 10 min and then 200 μL was transferred to fresh plates, sealed, and analyzed via HPLC.\nAll samples were quenched with equal volume of EtOH containing 0.2 mg/mL internal standard (3,5-Diisopropyl-2-hydroxybenzoic acid CAS #2215-21-6) centrifuged, and clarified solutions were analyzed by HPLC-MS […]"}, "divarinic acid [1]": {"system": "divarinic acid", "assay": "MPT fusions with GPS1.1 vs unfused MPTs, DVA feed (Example 9, Table 11)", "details": "2 mM divarinic acid", "procedure": "As described below, plasmids pCL-SE-0406, pCL-SE-0664, pCL-SE-0663, pCL-SE-0662, pCL-SE-0380 (MPT4), pCL-SE-0337.MPT21, were transformed into strain sCL-SE-0128. Multiple colonies per transformation were precultured for 48 h in YNB containing glucose (2%), casamino acids (0.5%), and MES (100 mM pH 6.5). Pre-culture was used to inoculate assay medium comprised of YNB containing glucose (2%), casamino acids (0.5%), MES (100 mM pH 6.5), and divarinic acid (2 mM). Cultures were quenched after 48 h total growth and assayed for CBGVA and FCBGVA. Averages and standard deviations were calculated from replicates.\n(§1) Overnight YPD (10 g/L yeast extract, 20 g/L peptone, 2% dextrose) cultures were inoculated from glycerol stocks of the appropriate strain and grown at 30° C. with 250 rpm shaking. Once cultures had reached an OD600 of 4-6, cultures were centrifuged at 500×g for 5 min, supernatants were discarded, and cell pellets were resuspended in equal volume of water. Resuspended cells were centrifuged at 500×g for 5 min, supernatants were discarded, and cells were resuspended in a volume (75 μL×OD×Vculture) of transformation cocktail (45% PEG-400, 0.1 M LiAc, 0.1 M DTT, and 25 ug/100 μL SS Salmon Sperm DNA). For each transformation, >1 μg of plasmid DNA was added to 55 μL cells/transformation cocktail and vortexed for 2 s. Transformations were incubated at 39° C. for 1 h with 250 rpm shaking. Transformations were resuspended in 750 μL YPD with 1 M sorbitol and recovered at 30° C. overnight with 250 rpm shaking. The next day, transformations were centrifuged at 500×g for 5 min, supernatants were discarded, and cell pellets were resuspended in 750 YPD. Resuspended transformations were plated on YPD with appropriate selection or YNBD (6.71 g/L yeast nitrogen base+nitrogen, 0.5% casamino acids, 2% dextrose) agar plates and grown at 30° C. for 2 days. Individual colonies were patched onto YPD plates with appropriate selection or YNBD plates and grown at 30° C. overnight. Patches were used to inoculate 0.5 mL YPD with appropriate selection or YNBD precultures in 96 w blocks and grown at 30° C. for 24-48 h with 1000 rpm shaking. For assays, 0.5 mL YPD with appropriate selection or YNBD cultures containing substrate were inoculated with 2 μL from precultures and grown at 30° C. for 2-4 days with 1000 rpm shaking with 2% glucose added every 24 h. Assay cultures were quenched by addition of 0.5 mL ethanol with 0.2% formic acid and 0.5 mg/mL pentyl-benzoic acid. Precipitates were pelleted by centrifuging at 4600×g for 10 min and then 200 μL was transferred to fresh plates, sealed, and analyzed via HPLC.\n(§2) All samples were quenched with equal volume of EtOH containing 0.2 mg/mL internal standard (3,5-Diisopropyl-2-hydroxybenzoic acid CAS #2215-21-6) centrifuged, and clarified solutions were analyzed by HPLC-MS\n(§3) • Column: 2.1×50 mm COSMOCORE PBr (Nacalai USA, Inc.) • Mobile Phase: A; 0.1% formic acid in water, B; 0.1% formic acid in acetonitrile • Flow: 0.45 mL/min • Temp: % 50 Celsius • Gradient: 20%B at 0 min, 70%B at 2.3 min, 89% B at 4.2 min, 20% B at 4.3 min, 20%B at 6 min"}, "divarinic acid [2]": {"system": "divarinic acid", "assay": "GPS1.1 fusions of MPT21 mutants, DVA feed (Example 9, Table 12)", "details": "2 mM divarinic acid, 2% glucose, quenched after 48 h; strain sCL-SE-0128", "procedure": "as §1, §2, §3"}, "olivetolic acid [3]": {"system": "olivetolic acid", "assay": "GPS1.1 fusions of MPT21 mutants, OA feed (Example 8, Table 10)", "details": "3 mM olivetolic acid, 6% glucose, 48 h quench; strain sCL-SE-0128"}, "olivetolic acid [4]": {"system": "olivetolic acid", "assay": "MPT fusions with GPS1.1 vs unfused MPTs, OA feed (Example 8, Table 9)", "details": "2 mM olivetolic acid, 48 h quench", "outline": "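Yeast strain sCL-SE-0128 carrying MPT or GPS1.1–MPT fusion plasmids, precultured 48 h in YNB/2% glucose/0.5% casamino acids/100 mM MES pH 6.5. Assay medium was the same plus 2 mM olivetolic acid, 30 °C. Cultures were ethanol-quenched at 48 h total growth, and CBGA and FCBGA were measured by HPLC-MS with internal standard; values are replicate means ± SD.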"}, "[5]": {"details": "2% glucose, quenched after 48 h, strain sCL-SE-0128"}}, "data": [{"molecule": "B1", "values": [{"measurement": "CBGA", "setting": "hexanoic acid; hexanoic acid 2.5 mM plus 5 mM after 24 h, 48 h quench, strain SB-00311 + pCL-SE-0274, average of 44 or 34 transformants", "result": "77.4 ± 32.4", "unit": "µM"}, {"measurement": "production of CBGA compared to the GPS1.1-MPT4 double fusion", "setting": "hexanoic acid; in words, hexanoic acid feed", "result": "improved production of CBGA"}]}, {"molecule": "B2", "values": [{"measurement": "CBGVA", "setting": "divarinic acid [1]; [5]", "result": "28 ± 2", "unit": "µM"}, {"measurement": "FCBGVA", "setting": "divarinic acid [1]; [5]", "result": "4 ± 0", "unit": "µM"}, {"measurement": "CBGVA/FCB", "setting": "divarinic acid [1]; 48 h, product ratio", "result": 7.2}, {"measurement": "CBGVA", "setting": "divarinic acid [2]", "result": "58 ± 7", "unit": "µM"}, {"measurement": "FCBGVA", "setting": "divarinic acid [2]", "result": "6 ± 1", "unit": "µM"}, {"measurement": "CBGA", "setting": "olivetolic acid [3]", "result": "276 ± 17", "unit": "µM"}, {"measurement": "FCBGA", "setting": "olivetolic acid [3]", "result": "89 ± 4", "unit": "µM"}, {"measurement": "CBGA", "setting": "olivetolic acid [4]; 2% glucose, strain sCL-SE-0128", "result": "156 ± 13", "unit": "µM"}, {"measurement": "FCBGA", "setting": "olivetolic acid [4]; 2% glucose, strain sCL-SE-0128", "result": "52 ± 5", "unit": "µM"}, {"measurement": "CBGA/FCBGA", "setting": "olivetolic acid [4]; product ratio", "result": 3.0}]}]}
